Measured values as given in paper PMC2515342.

Key:
[1] = biological target: apo-hemoglobin (hemoglobin lacking heme) (bovine) (UniProt P01966); assay: SPR
[2] = biological target: hemoglobin (with bound heme) (bovine) (UniProt P01966); assay: SPR

IsdX1 (GST removed with thrombin) (domain or fragment)
Kd [1]: 9.43 mM | Kd [2]: 0.00733 mM
